Assay results published in US20240116985A1 (published 2024).
Starred links: 1 amine or outer side, 2 acyl side, 3 side chain; linkers in the order of their positions; H or OH if unused. Positions of bridges follow the written chain, without caps; N, C: chain ends. Non-standard residues stand in square brackets, D forms with d. Primed or numbered codes have the meaning given here. (Me2NPrPip)GlnR = (S)-2-amino-5-(4-(3-(dimethylamino)propyl)piperazin-1-yl)-5-oxopentanoic acid, CN(C)CCCN1CCN(C(=O)CC[C@H](N[*:1])C(=O)[*:2])CC1; PyrS2″ = (S)-3-amino-1-((pent-4-en-1-yloxy)carbonyl)pyrrolidine-3-carboxylic acid (stapling residue), C=CCCCOC(=O)N1CC[C@@](N[*:1])(C(=O)[*:2])C1; (TfePpz)GlnR = (S)-2-amino-5-oxo-5-(4-(2,2,2-trifluoroethyl)piperazin-1-yl)pentanoic acid, O=C(CC[C@H](N[*:1])C(=O)[*:2])N1CCN(CC(F)(F)F)CC1; (RDMAPyr)GlnR = (S)-2-amino-5-((R)-3-(dimethylamino)pyrrolidin-1-yl)-5-oxopentanoic acid, CN(C)[C@@H]1CCN(C(=O)CC[C@H](N[*:1])C(=O)[*:2])C1; B5(5) = 2,2-bis(4-pentenyl)glycine, 2-amino-2-(pent-4-en-1-yl)hept-6-enoic acid (stitching residue), C=CCCCC(CCCC=C)(N[*:1])C(=O)[*:2]; TfeGA = (S)-2-amino-3-((carboxymethyl)(2,2,2-trifluoroethyl)amino)propanoic acid, O=C([C@H](CN(CC(=O)[*:3])CC(F)(F)F)N[*:1])[*:2]; PyrS2 = (S)-3-amino-1-((pent-4-en-1-yloxy)carbonyl)pyrrolidine-3-carboxylic acid, C=CCCCOC(=O)N1CC[C@@](N[*:1])(C(=O)[*:2])C1; PyrS1 = (S)-3-amino-1-((but-3-en-1-yloxy)carbonyl)pyrrolidine-3-carboxylic acid, C=CCCOC(=O)N1CC[C@@](N[*:1])(C(=O)[*:2])C1; B5(12) = 2-amino-2-(pent-4-en-1-yl)hept-6-enoic acid (two olefin side chains), C=CCCCC(CCCC=C)(N[*:1])C(=O)[*:2]; B5(19) = 2-amino-2-(pent-4-en-1-yl)hept-6-enoic acid (bis(4-pentenyl)glycine), C=CCCCC(CCCC=C)(N[*:1])C(=O)[*:2]; MorphAsn = (S)-2-amino-4-morpholino-4-oxobutanoic acid, O=C(C[C@H](N[*:1])C(=O)[*:2])N1CCOCC1; B5(3) = 2,2-bis(4-pentenyl)glycine (stitching residue), C=CCCCC(CCCC=C)(N[*:1])C(=O)[*:2]; Nva(5-morpholino) = N[C@@H](CCCN1CCOCC1)C(=O)O; Phe(3-COOH) = N[C@@H](Cc1cccc(C(=O)O)c1)C(=O)O; Phe(2-Cl) = N[C@@H](Cc1ccccc1Cl)C(=O)O; Bta = N[C@@H](Cc1csc2ccccc12)C(=O)O; αAllylPro = C=CC[C@@]1(C(=O)O)CCCN1; tBuAla = CC(C)(C)C[C@H](N)C(=O)O; 3Thi = N[C@@H](Cc1ccsc1)C(=O)O; Cba = N[C@@H](CC1CCC1)C(=O)O; PyrS2(4) = not defined here

T1: B-cat-Halo (beta-catenin HaloTag NanoBRET construct expressed in HEK293 cells) (UniProt P35222 1-781, HaloTag NanoBRET 618 Ligand bound in the assay)
T1 sequence (looked up): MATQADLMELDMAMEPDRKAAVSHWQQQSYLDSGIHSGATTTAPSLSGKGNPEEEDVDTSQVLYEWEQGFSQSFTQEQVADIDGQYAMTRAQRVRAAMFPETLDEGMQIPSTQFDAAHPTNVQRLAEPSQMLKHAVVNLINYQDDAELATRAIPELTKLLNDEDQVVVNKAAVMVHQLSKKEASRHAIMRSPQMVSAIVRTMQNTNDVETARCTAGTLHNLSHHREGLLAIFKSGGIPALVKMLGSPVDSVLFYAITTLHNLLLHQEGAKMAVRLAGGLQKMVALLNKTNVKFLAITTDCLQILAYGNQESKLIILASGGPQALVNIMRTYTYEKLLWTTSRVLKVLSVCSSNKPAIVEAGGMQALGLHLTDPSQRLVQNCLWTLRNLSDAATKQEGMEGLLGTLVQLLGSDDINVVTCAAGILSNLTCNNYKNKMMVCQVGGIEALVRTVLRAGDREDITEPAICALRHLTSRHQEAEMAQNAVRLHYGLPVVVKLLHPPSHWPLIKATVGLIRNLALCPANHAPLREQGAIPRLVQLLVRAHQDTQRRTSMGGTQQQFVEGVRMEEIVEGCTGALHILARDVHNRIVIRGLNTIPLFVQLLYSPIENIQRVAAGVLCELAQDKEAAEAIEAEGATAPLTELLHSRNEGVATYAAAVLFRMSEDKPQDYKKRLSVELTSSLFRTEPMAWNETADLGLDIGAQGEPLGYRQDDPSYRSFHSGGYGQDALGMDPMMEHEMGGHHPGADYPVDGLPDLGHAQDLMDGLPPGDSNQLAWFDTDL

T2: Bcat-Halo (beta-catenin HaloTag construct transfected into HEK293 cells) (UniProt P35222 1-781)
T2 sequence (looked up): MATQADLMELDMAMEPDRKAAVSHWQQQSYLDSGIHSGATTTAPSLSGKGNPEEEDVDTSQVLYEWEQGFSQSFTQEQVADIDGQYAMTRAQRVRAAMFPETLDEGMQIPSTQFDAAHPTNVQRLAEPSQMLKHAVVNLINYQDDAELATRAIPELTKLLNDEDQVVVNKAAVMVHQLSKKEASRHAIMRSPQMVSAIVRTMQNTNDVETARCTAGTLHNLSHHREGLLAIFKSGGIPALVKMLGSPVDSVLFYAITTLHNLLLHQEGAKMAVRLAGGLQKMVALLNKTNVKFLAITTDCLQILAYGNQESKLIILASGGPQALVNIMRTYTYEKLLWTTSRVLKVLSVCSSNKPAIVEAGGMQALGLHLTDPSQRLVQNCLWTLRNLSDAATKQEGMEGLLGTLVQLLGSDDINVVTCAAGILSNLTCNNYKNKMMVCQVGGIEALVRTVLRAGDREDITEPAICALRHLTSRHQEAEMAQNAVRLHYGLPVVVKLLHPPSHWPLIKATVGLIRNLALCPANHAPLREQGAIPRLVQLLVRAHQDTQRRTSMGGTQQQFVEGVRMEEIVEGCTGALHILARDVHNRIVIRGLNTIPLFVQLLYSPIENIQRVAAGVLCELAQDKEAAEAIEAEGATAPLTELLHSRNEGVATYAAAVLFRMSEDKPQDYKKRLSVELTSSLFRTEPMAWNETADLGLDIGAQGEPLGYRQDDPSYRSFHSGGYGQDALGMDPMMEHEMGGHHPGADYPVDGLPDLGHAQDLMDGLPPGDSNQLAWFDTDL

T3: B-cat-Halo (beta-catenin HaloTag NanoBRET construct expressed in HEK293 cells) (UniProt P35222 1-781)
T3 sequence (looked up): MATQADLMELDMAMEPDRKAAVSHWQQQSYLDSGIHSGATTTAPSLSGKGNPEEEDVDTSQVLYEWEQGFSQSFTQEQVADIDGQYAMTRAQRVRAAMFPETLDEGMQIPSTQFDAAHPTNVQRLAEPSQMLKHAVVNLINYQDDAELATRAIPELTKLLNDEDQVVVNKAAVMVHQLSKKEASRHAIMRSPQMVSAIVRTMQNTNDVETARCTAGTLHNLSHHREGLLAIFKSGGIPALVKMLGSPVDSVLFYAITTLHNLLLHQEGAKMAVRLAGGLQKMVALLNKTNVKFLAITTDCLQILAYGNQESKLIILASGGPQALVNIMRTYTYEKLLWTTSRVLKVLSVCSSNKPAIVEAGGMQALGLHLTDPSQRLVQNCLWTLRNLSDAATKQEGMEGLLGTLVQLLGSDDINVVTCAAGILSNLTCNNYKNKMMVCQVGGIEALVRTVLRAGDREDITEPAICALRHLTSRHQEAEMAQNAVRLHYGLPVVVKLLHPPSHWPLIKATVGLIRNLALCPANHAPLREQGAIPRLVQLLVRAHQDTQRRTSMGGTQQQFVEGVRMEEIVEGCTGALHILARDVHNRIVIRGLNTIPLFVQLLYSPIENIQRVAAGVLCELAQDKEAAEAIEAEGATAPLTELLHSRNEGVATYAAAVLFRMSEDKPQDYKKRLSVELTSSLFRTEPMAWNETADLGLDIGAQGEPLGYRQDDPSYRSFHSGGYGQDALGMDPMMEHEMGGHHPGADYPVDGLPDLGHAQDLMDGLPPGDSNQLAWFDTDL


Tests used:
Assay in all cases: cell-based or functional assay
[1] = target: T1, B-cat-Halo (beta-catenin HaloTag …)
[2] = target: T2, Bcat-Halo (beta-catenin HaloTag …)
[3] = target: T3, B-cat-Halo (beta-catenin HaloTag …)

Binder | NanoBRET Abs IC50 [1] [µM] | NanoBRET Abs IC50 [3] [µM] | further results
Ac-[αAllylPro]D[tBuAla][B5(3)]D[TfeGA]AAFL[PyrS2″][3Thi][Bta][(TfePpz)GlnR]-NH2 (staple 1-4, 4-11) [I-1803] | 7.4 |  | 
Ac-[αAllylPro]D[tBuAla][B5(3)]DDAAFL[PyrS2″][3Thi][Bta]Q-NH2 (staple 1-4, 4-11; also: staple olefins reduced to -CH2-CH2-) [I-1808] | 14 |  | 
Ac-[αAllylPro]D[tBuAla][B5(3)]D[TfeGA]AAFL[PyrS2″][3Thi][Bta][(Me2NPrPip)GlnR]-NH2 (staple 1-4, 4-11; not fully specified) [I-1799] | 25.8 |  | 
Ac-[αAllylPro]D[tBuAla][B5(3)]DD[MorphAsn]AFL[PyrS2″][3Thi][Bta]Q-NH2 (staple 1-4, 4-11) [I-1483] |  |  | NanoBRET Abs IC50 [2]: > 20 µM
Ac-[αAllylPro]D[tBuAla][B5(3)]DD[Nva(5-morpholino)]AFL[PyrS2″][3Thi][Bta]Q-NH2 (staple 1-4, 4-11) [I-1481] |  |  | NanoBRET Abs IC50 [2]: 39.7 µM
Ac-[αAllylPro]D[tBuAla][B5(3)]D[TfeGA]AAFL[PyrS2″][3Thi][Bta][(RDMAPyr)GlnR]-NH2 (staple 1-4, 4-11; not fully specified) [I-1804] | 9.4 |  | 
Ac-[αAllylPro]D[tBuAla][B5(19)]DDAAFN[PyrS1][3Thi][Bta]Q-NH2 (staple 1-4, 4-11; not fully specified; printed as Ac-PL3-Asp-Npg-B5-Asp-Asp-Ala-Ala-Phe-Asn-PyrS1-3Thi-BztA-Gln-NH2) [I-1813] | > 20 |  | 

Continued, in another order:

NanoBRET Abs IC50 [1] [µM] | NanoBRET Abs IC50 [3] [µM] | Binder | further results
 | 4.9 | Ac-[αAllylPro]D[tBuAla][B5(5)]D[Phe(3-COOH)]SAFL[PyrS2][Phe(2-Cl)][Bta]S-NH2 (staple 1-4, 4-11; not fully specified; printed as Ac-PL3-Asp-Npg-B5-Asp-3COOHF-Ser-Ala-Phe-Leu-PyrS2-2C1F-BztA-Ser-NH2) [I-1901] | 
 | > 20 | Ac-[αAllylPro]D[tBuAla][B5(5)]DRAAFN[PyrS2][3Thi][Bta]Q-NH2 (staple 1-4, 4-11; not fully specified; printed as Ac-PL3-Asp-Npg-B5-Asp-Arg-Ala-Ala-Phe-Asn-PyrS2-3Thi-BztA-Gln-NH2) [I-1890] | 
 | 10.9 | Ac-[αAllylPro]D[tBuAla][B5(5)]D[Phe(3-COOH)]AAFL[PyrS2][Cba][Bta]S-NH2 (staple 1-4, 4-11; not fully specified; printed as Ac-PL3-Asp-Npg-B5-Asp-3COOHF-Ala-Ala-Phe-Leu-PyrS2-Cba-BztA-Ser-NH2) [I-1898] | 
 | 6.4 | Ac-[αAllylPro]D[tBuAla][B5(12)]D[Phe(3-COOH)]AAFS[PyrS2(4)][Phe(2-Cl)][Bta]S-NH2 (staple 1-4, 4-11; not fully specified; printed as Ac-PL3-Asp-Npg-B5-Asp-3COOHF-Ala-Ala-Phe-Ser-PyrS2-2C1F-BztA-Ser-NH2; reading uncertain) [I-1903] | 
 | > 20 | Ac-[αAllylPro]D[tBuAla][B5(5)]DRAAFN[PyrS2][3Thi][Bta]Q-NH2 (staple 1-4, 4-11; not fully specified; printed as Ac-PL3-Asp-Npg-B5-Asp-Arg-Ala-Ala-Phe-Asn-PyrS2-3Thi-BztA-Gln-NH2) [I-1891] | 
